Laboratory results from PMC7824211.

Biological target: recombinant HA Victoria (B/Brisbane/60/2008) fused to an HIS-Tag (influenza B virus B/Brisbane/60/2008 (Victoria lineage))
Assay: SPR

“NKp46-Ig (extracellular portion of human NKp46 fused to the Fc portion of human IgG1) (from UniProt O76036 22-258) (Fc fusion)” gave a fold lower affinity than to the HA of IAV of 7 fold.
